Assay [1] has as its system human pluripotent stem cells. As to the kind of experiment: Replacement of FGF2 by other FGFs in Stage 1 differentiation. Format: cell-based. As to conditions: FGF used in Stage 1 medium. From the text:
In some embodiments, the FGF used in Stage 1 is selected from the group consisting of FGF2, FGF4, FGF7, FGF10 and the mixtures thereof. […] Thus, one would use any one of FGF4, FGF7 and FGF10 to replace FGF2 in Stage 1. One may also use mixtures of two or more of FGF2, FGF4, FGF7 and FGF10 in this stage. In a specific embodiment, the FGF in Stage 1 is FGF2.

Assay [2] deals with insulin protein expression. As to the kind of experiment: Immunohistochemistry of insulin protein expression after Stage 4. Format: cell-based, human. To be noted: addition of Noggin at Stage 4. As for the experimental part: Immunohistochemistry was performed at the end of Stage 4 (Day 18) to examine protein expression of Insulin and NKX6.1.
Assay [3] relates to PDX1, NKX6.1, Neurogenin 3 and insulin gene expression. As to the kind of experiment: QPCR gene expression of endoderm and pancreatic markers in differentiated cells. Format: cell-based, human. As for the experimental part:
QPCR was performed at the end of Stage 4 ([…] Day 18) to examine gene expression of PDX1, a marker of pancreatic epithelium and progenitor cells, insulin, a marker of beta cells, and Sox9 which is expressed in the developing pancreatic epithelium. The gene expression is compared to undifferentiated cells collected at Day 0 and β-Actin is the internal control. […] Human Fetal Pancreas (HFP), gestation 14-20 weeks, is represented as a positive control.
In FIG. 19, the gene expression is compared to undifferentiated cells collected at Day 0 and B-Actin is the internal control. On the y axis is delta CT (instead of fold change), thus, the lower the value the greater the gene expression.
First, alterations at Stage 3 and 4 altered gene expression minimally. […] On the y axis is delta CT (instead of fold change), thus, the lower the value the greater the gene expression. […] In contrast the addition of Noggin at Stage 4, decreased PDX1 and NKX6.1 gene expression and increased Neurogenin 3 expression. There was no difference in insulin gene expression following the addition of Noggin to Stage 4.

The test system of assay [4] is PDX1 and insulin protein expression in H1 cells. As to the kind of experiment: Flow cytometry of PDX1 and insulin protein expression at end of Stage 4. Type of assay: cell-based, human. From the text: To quantify insulin and PDX1 protein expression we optimized a flow cytometry assay. […] The INS-1 cell line is an immortalized pancreatic beta cell line that expresses both PDX1 and insulin. On the bottom left, is our negative control, unstained H1 cells differentiated for 18 days. On the right, is H1 cells differentiated by the current protocol through day 18 stained with Insulin-PB and PDX1-AF488. […] Only 8-11% of the cells are PDX1 and insulin double positive.
To examine protein expression we collected cells at the end of Stage 4 and examined them by flow cytometry.
Thus, the effect of Noggin is context dependent and synergistic with nicotinamide and Exendin-4.
For orientation: Flow cytometry measures light scatter and fluorescence of single cells or particles in a stream.

B1: FGF10: fibroblast growth factor family ligand (protein, UniProt O15520 38-208, looked up)
Fibroblast growth factor 10: QALGQDMVSPEATNSSSSSFSSPSSAGRHVRSYNHLQGDVRWRKLFSFTKYFLKIEKNGKVSGTKKENCPYSILEITSVEIGVVAVKAINSNYYLAMNKKGKLYGSKEFNNDCKLKERIEENGYNTYASFNWQHNGRQMYVALNGKGAPRRGQKTRRKNTSAHFLPMVVHS
For the molecule B1, the “effects in Stage 1 relative to FGF2” value in assay [1] is on record as “comparable to FGF2”.

B2: FGF7: fibroblast growth factor 7 (protein, UniProt P21781 32-194, looked up)
Fibroblast growth factor 7: CNDMTPEQMATNVNCSSPERHTRSYDYMEGGDIRVRRLFCRTQWYLRIDKRGKVKGTQEMKNNYNIMEIRTVAVGIVAIKGVESEFYLAMNKEGKLYAKKECNEDCNFKELILENHYNTYASAKWTHNGGEMFVALNQKGIPVRGKKTKKEQKTAHFLPMAIT
Take B2: the “effects in Stage 1 relative to FGF2” value in assay [1] is given as “comparable to FGF2”.

B3: Noggin: a protein which in humans is encoded by the NOG gene; inhibits TGF-β signal transduction (protein, UniProt Q13253 28-232, looked up)
Noggin: QHYLHIRPAPSDNLPLVDLIEHPDPIFDPKEKDLNETLLRSLLGGHYDPGFMATSPPEDRPGGGGGAAGGAEDLAELDQLLRQRPSGAMPSEIKGLEFSEGLAQGKKQRLSKKLRRKLQMWLWSQTFCPVLYAWNDLGSRFWPRYVKVGSCFSKRSCSVPEGMVCKPSKSVHLTVLRWRCQRRGGQRCGWIPIQYPIISECKCSC
Take B3: in assay [2], the “clustering and insulin protein expression” value was “increased clustering and insulin protein expression”; the “hormonal status of insulin-expressing cells” value is “a majority of those cells are still polyhormonal”. Moreover, in assay [3] (addition of Noggin at Stage 4), the NKX6.1 gene expression result is on record as “decreased”, the “Neurogenin 3 expression” value was “increased” and the PDX1 gene expression entry was “decreased”. Moreover, the insulin gene expression entry in assay [3] (addition of Noggin to Stage 4) is recorded as “no difference”. Also, the double positive cells result in assay [4] (Noggin in the context of ITSFINE) was “increases double positive cells”. The insulin expression entry in assay [4] (addition of Noggin at Stage 4 (ITSFINE)) is reported as “increases insulin expression”. The double positive cells result in assay [4] (addition of Noggin in the absence of nicotinamide and Exendin-4 (ITSFI)) was “does not further increase the double positive cells”.

B4: FGF4: fibroblast growth factor family ligand (protein, UniProt P08620 31-206, looked up)
Fibroblast growth factor 4: APTAPNGTLEAELERRWESLVALSLARLPVAAQPKEAAVQSGAGDYLLGIKRLRRLYCNVGIGFHLQALPDGRIGGAHADTRDSLLELSPVERGVVSIFGVASRFFVAMSSKGKLYGSPFFTDECTFKEILLPNNYNAYESYKYPGMFIALSKNGKTKKGNRVSPTMKVTHFLPRL
In the case of B4, the “effects in Stage 1 relative to FGF2” value in assay [1] is “comparable to FGF2”.

The record behind these values is patent publication US9540613B2, “Methods for producing insulin-secreting beta cells from human pluripotent stem cells” (Wisconsin Alumni Research Foundation, priority 2013, dated 2017).
